Results published in article PMC10760634.

Experiments:
[1] = target: the PHD and PHF7 (KD values in the range of 3–6 µM); experiment: MST
[2] = target: UBE2D2∼Ub (ubiquitin-conjugated UBE2D2 S22R/C85K) (UniProt P62837); experiment: ITC
[3] = target: UBE2D2∼Ub (ubiquitin-conjugated UBE2D2 S22R/C85K) (UniProt P62837); experiment: SEC

PHF7 (mPHF7 28–307), sequence (Q9DAG9 28-307): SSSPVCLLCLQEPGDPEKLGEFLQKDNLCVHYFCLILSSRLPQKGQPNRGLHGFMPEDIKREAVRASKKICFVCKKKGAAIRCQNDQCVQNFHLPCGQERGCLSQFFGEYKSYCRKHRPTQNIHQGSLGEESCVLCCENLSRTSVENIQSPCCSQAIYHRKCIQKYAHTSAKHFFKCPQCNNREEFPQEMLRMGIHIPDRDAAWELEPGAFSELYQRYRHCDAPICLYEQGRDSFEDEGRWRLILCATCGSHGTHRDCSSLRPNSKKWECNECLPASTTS

H3K4me2(1–44) (from UniProt P84233 2-45) (peptide)
Kd [1]: 3000 to 6000 nM

PHF7 RING–PHD (150–307) C164A (from UniProt Q9DAG9 150-307) (domain or fragment)
fold lower affinity than PHF7 [2]: 7 fold

PHF7 (mPHF7 28–307) (from UniProt Q9DAG9 28-307) (domain or fragment)
Kd [2]: 400 nM | fold stronger affinity than for UBE2D2 alone [2]: 3 fold | stoichiometry N [3]: 1
